Experiments:
[1] = biological target: GFP-SNX4 (UniProt O95219); test: co-IP; GBP-IP as above with lysates of HeLa cells transiently transfected with wild-type or mutant GFP-SNX4 and HA-SNX32 (legend of Figure 1H); values are the ratio of HA to GFP band intensity
[2] = biological target: T1, GFP-SNX1 (UniProt Q13596-1 1-522); test: co-IP; GFP nanobody-based immunoprecipitation (GBP-IP): GST-GBP on glutathione sepharose beads incubated 2 hr at 4°C with extracts of HEK293T cells overexpressing GFP- and HA-tagged SNX proteins; washed with 1x PBS; immunoblot with anti-HA and anti-GFP; values are the ratio of HA to GFP band intensity; conditions: partners not purified
T1 construct: Sorting nexin 1 (SNX1); pEGFP C1 SNX1, gift of P. J. Cullen; also called GFP-SNX1 WT; pEGFP C1 SNX1
T1 sequence (Q13596 whole entry): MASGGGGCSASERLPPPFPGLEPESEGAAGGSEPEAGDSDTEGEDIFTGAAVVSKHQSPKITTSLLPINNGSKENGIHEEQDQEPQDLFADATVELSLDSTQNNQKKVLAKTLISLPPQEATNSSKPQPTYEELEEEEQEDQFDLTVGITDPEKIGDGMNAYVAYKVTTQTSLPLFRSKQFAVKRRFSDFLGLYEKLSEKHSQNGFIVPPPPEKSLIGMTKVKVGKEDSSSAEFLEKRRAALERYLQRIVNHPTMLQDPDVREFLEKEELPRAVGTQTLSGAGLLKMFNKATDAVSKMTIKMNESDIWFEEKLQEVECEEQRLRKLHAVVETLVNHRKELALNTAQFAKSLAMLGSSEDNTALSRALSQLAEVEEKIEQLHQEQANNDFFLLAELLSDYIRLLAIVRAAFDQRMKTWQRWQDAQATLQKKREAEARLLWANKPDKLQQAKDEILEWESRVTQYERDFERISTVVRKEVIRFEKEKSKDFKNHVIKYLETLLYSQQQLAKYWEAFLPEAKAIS

[3] = biological target: T2, GFP-SNX32 (UniProt Q86XE0-1 1-403); test: as above; conditions: partners not purified
T2 construct: Sorting nexin 32 (SNX32, SNX6b); pEGFP C1 SNX32 FL, gift of P. J. Cullen; also called GFP-SNX32 WT; pEGFP C1 SNX32 FL; source: HEK293T or HeLa, transiently transfected, in lysate
T2 sequence (looked up): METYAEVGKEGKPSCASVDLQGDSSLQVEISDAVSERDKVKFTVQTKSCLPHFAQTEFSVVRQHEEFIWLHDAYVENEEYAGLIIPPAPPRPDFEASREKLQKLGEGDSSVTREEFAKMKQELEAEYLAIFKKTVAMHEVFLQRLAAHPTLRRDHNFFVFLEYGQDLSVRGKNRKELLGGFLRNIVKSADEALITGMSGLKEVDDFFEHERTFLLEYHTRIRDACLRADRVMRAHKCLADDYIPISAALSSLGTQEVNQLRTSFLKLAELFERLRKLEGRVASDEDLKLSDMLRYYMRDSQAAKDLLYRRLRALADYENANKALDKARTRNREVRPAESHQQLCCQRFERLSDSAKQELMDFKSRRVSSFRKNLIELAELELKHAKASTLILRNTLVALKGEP

[4] = biological target: T3, GFP-SNX8 (UniProt Q9Y5X2 1-465); test: as above; conditions: partners not purified
T3 construct: Sorting nexin 8 (SNX8); the plasmid is not described in the methods; source: HEK293T, transiently transfected, in lysate
T3 sequence (looked up): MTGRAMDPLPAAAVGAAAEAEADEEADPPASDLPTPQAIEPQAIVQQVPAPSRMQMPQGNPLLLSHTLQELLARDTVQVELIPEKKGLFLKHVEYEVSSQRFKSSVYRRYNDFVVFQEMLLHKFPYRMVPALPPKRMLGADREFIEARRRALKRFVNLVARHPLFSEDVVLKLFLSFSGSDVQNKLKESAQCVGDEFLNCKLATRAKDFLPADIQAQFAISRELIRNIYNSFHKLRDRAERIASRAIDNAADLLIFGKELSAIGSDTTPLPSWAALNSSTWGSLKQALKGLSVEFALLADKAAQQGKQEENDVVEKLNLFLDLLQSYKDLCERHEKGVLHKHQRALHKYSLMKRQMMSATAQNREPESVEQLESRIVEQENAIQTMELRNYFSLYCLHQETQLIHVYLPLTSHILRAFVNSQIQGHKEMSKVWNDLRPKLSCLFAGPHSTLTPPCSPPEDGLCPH

[5] = biological target: T4, GFP-SNX4, O95219; test: as above; conditions: remark: other sources report otherwise
T4 chain: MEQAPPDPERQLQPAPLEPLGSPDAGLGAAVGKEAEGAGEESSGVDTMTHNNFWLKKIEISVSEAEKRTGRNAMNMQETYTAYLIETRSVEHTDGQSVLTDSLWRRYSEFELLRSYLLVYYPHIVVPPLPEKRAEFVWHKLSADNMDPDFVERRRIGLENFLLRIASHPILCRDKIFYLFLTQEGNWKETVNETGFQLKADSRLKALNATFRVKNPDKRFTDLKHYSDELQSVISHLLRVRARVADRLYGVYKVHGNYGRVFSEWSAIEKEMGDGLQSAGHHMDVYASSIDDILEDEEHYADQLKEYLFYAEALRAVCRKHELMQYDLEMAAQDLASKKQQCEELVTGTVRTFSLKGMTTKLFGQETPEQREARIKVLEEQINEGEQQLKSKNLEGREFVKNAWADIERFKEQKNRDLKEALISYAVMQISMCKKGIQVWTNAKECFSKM

[6] = biological target: T5, GFP-SNX4 (UniProt O95219-1 1-450); test: co-IP; GBP-IP as above with lysates of HeLa cells transiently transfected with wild-type or mutant GFP-SNX4 and HA-SNX32 (legend of Figure 1H); values are the ratio of HA to GFP band intensity; conditions: partners not purified
T5 construct: Sorting nexin 4 (SNX4); pEGFP C1 SNX4, gift of P. J. Cullen; also called GFP-SNX4 WT; pEGFP C1 SNX4; source: HEK293T or HeLa, transiently transfected, in lysate
T5 sequence (looked up): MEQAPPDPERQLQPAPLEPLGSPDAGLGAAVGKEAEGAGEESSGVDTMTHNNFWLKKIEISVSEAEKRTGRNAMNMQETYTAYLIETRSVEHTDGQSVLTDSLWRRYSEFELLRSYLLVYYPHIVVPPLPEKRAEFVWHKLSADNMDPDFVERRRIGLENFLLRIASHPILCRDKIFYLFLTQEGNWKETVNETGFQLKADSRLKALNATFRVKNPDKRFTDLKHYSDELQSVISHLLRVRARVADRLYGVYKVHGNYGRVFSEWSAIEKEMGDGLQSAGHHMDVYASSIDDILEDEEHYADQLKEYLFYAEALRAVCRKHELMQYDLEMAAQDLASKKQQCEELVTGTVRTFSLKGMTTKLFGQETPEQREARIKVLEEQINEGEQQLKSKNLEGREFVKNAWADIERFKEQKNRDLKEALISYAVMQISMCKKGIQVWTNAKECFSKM

**Q.** Which ratio of HA to GFP band intensity [1] does the source give for “HA-SNX32 A226E (from UniProt Q86XE0-1 1-403) (natural protein)” here?
**A.** 0.65

B1: HA-SNX32 full-length (FL) (natural protein, UniProt Q86XE0-1 1-403, looked up)
chain: METYAEVGKEGKPSCASVDLQGDSSLQVEISDAVSERDKVKFTVQTKSCLPHFAQTEFSVVRQHEEFIWLHDAYVENEEYAGLIIPPAPPRPDFEASREKLQKLGEGDSSVTREEFAKMKQELEAEYLAIFKKTVAMHEVFLQRLAAHPTLRRDHNFFVFLEYGQDLSVRGKNRKELLGGFLRNIVKSADEALITGMSGLKEVDDFFEHERTFLLEYHTRIRDACLRADRVMRAHKCLADDYIPISAALSSLGTQEVNQLRTSFLKLAELFERLRKLEGRVASDEDLKLSDMLRYYMRDSQAAKDLLYRRLRALADYENANKALDKARTRNREVRPAESHQQLCCQRFERLSDSAKQELMDFKSRRVSSFRKNLIELAELELKHAKASTLILRNTLVALKGEP
notes: Sorting nexin 32 (SNX32, SNX6b); pcDNA3 HA N(I)-SNX32 FL subcloned from pEGFP C1-SNX32FL; also called HA-SNX32FL; HA-SNX32 WT; source: HEK293T or HeLa, transiently transfected, in lysate
**Q.** How did the “ratio of HA to GFP band intensity” value [2] turn out when B1 was run?
**A.** 0.98

**Q.** And the “ratio of HA to GFP band intensity” value [3]?
**A.** 0.85

**Q.** What about the “ratio of HA to GFP band intensity” value [4] of the same molecule?
**A.** 0.62

**Q.** What about the ratio of HA to GFP band intensity [5] of the same molecule?
**A.** 0.92

B2: HA-SNX32 R366E (natural protein, UniProt Q86XE0-1 1-403, looked up)
chain: METYAEVGKEGKPSCASVDLQGDSSLQVEISDAVSERDKVKFTVQTKSCLPHFAQTEFSVVRQHEEFIWLHDAYVENEEYAGLIIPPAPPRPDFEASREKLQKLGEGDSSVTREEFAKMKQELEAEYLAIFKKTVAMHEVFLQRLAAHPTLRRDHNFFVFLEYGQDLSVRGKNRKELLGGFLRNIVKSADEALITGMSGLKEVDDFFEHERTFLLEYHTRIRDACLRADRVMRAHKCLADDYIPISAALSSLGTQEVNQLRTSFLKLAELFERLRKLEGRVASDEDLKLSDMLRYYMRDSQAAKDLLYRRLRALADYENANKALDKARTRNREVRPAESHQQLCCQRFERLSDSAKQELMDFKSREVSSFRKNLIELAELELKHAKASTLILRNTLVALKGEP
notes: Sorting nexin 32 (SNX32) with a point mutation, made by site-directed mutagenesis of HA-tagged SNX32; also called pcDNA3 HA N(I)-SNX32 R366E; source: HeLa, transiently transfected, in lysate
**Q.** With B2 as the molecule, how does the “ratio of HA to GFP band intensity” value [6] read?
**A.** 0.49

B3: HA-SNX32 Q259R (natural protein, UniProt Q86XE0-1 1-403, looked up)
chain: METYAEVGKEGKPSCASVDLQGDSSLQVEISDAVSERDKVKFTVQTKSCLPHFAQTEFSVVRQHEEFIWLHDAYVENEEYAGLIIPPAPPRPDFEASREKLQKLGEGDSSVTREEFAKMKQELEAEYLAIFKKTVAMHEVFLQRLAAHPTLRRDHNFFVFLEYGQDLSVRGKNRKELLGGFLRNIVKSADEALITGMSGLKEVDDFFEHERTFLLEYHTRIRDACLRADRVMRAHKCLADDYIPISAALSSLGTQEVNRLRTSFLKLAELFERLRKLEGRVASDEDLKLSDMLRYYMRDSQAAKDLLYRRLRALADYENANKALDKARTRNREVRPAESHQQLCCQRFERLSDSAKQELMDFKSRRVSSFRKNLIELAELELKHAKASTLILRNTLVALKGEP
notes: Sorting nexin 32 (SNX32) with a point mutation, made by site-directed mutagenesis of HA-tagged SNX32; also called pcDNA3 HA N(I)-SNX32 Q259R; source: HeLa, transiently transfected, in lysate
**Q.** Which “ratio of HA to GFP band intensity” value [6] does the source give for B3 here?
**A.** 0.75

B4: HA-SNX32 R220E (natural protein, UniProt Q86XE0-1 1-403, looked up)
chain: METYAEVGKEGKPSCASVDLQGDSSLQVEISDAVSERDKVKFTVQTKSCLPHFAQTEFSVVRQHEEFIWLHDAYVENEEYAGLIIPPAPPRPDFEASREKLQKLGEGDSSVTREEFAKMKQELEAEYLAIFKKTVAMHEVFLQRLAAHPTLRRDHNFFVFLEYGQDLSVRGKNRKELLGGFLRNIVKSADEALITGMSGLKEVDDFFEHERTFLLEYHTEIRDACLRADRVMRAHKCLADDYIPISAALSSLGTQEVNQLRTSFLKLAELFERLRKLEGRVASDEDLKLSDMLRYYMRDSQAAKDLLYRRLRALADYENANKALDKARTRNREVRPAESHQQLCCQRFERLSDSAKQELMDFKSRRVSSFRKNLIELAELELKHAKASTLILRNTLVALKGEP
notes: Sorting nexin 32 (SNX32) with a point mutation, made by site-directed mutagenesis of HA-tagged SNX32; also called pcDNA3 HA N(I)-SNX32 R220E; source: HeLa, transiently transfected, in lysate
**Q.** Which “ratio of HA to GFP band intensity” value [6] does the source give for B4 here?
**A.** 1.02

B5: HA-SNX32 E256R (natural protein, UniProt Q86XE0-1 1-403, looked up)
chain: METYAEVGKEGKPSCASVDLQGDSSLQVEISDAVSERDKVKFTVQTKSCLPHFAQTEFSVVRQHEEFIWLHDAYVENEEYAGLIIPPAPPRPDFEASREKLQKLGEGDSSVTREEFAKMKQELEAEYLAIFKKTVAMHEVFLQRLAAHPTLRRDHNFFVFLEYGQDLSVRGKNRKELLGGFLRNIVKSADEALITGMSGLKEVDDFFEHERTFLLEYHTRIRDACLRADRVMRAHKCLADDYIPISAALSSLGTQRVNQLRTSFLKLAELFERLRKLEGRVASDEDLKLSDMLRYYMRDSQAAKDLLYRRLRALADYENANKALDKARTRNREVRPAESHQQLCCQRFERLSDSAKQELMDFKSRRVSSFRKNLIELAELELKHAKASTLILRNTLVALKGEP
notes: Sorting nexin 32 (SNX32) with a point mutation, made by site-directed mutagenesis of HA-tagged SNX32; also called pcDNA3 HA N(I)-SNX32E256R; source: HeLa, transiently transfected, in lysate
**Q.** Which “ratio of HA to GFP band intensity” value [6] does the source give for B5 here?
**A.** 0.66
